Article PMC8920847

Molecular target: His-tagged recombinant AjBNIP3 (rAjBNIP3) (Apostichopus japonicus)
Test: MST

Kd: 2820 nM
Substance: Recombinant His-AjLC3 (natural protein)
